# Changes are numbered by the printed parent chain. Names and notes keep the numbering of the source. Values joined by “and” are separate entries in the source; they are usually repeats but may differ in a detail not shown here. Equal values may be shown once.
# B1: H226A: single-point mutated rat sRANKL (protein, UniProt Q9ESE2 69-318, looked up, variant H226A)
# extracellular domain: LYFRAQMDPNRISEDSTRCFYRILRLRENTGLQDSTLESEDTEALPDSCRRMKQAFQGAVQRELQHIVGPQRFSGVPAMMEGSWLDVARRGKPEAQPFAHLTINAADIPSGSHKVSLSSWYHDRGWAKISNMTLSNGKLRVNQDGFYYLYANICFRHAETSGSVPADYLQLMVYVVKTSIKIPSSHNLMKGGSTKNWSGNSEFHFYSINVGGFFKLRAGEEISVQVSNPSLLDPDQDATYFGAFKVQDID
# modifications: extracellular domain
# notes: single-point mutated rat sRANKL
# B2: K283A (protein, UniProt Q9ESE2 69-318, looked up, variant K283A)
# extracellular domain: B1 extracellular domain with A158H, K215A
# modifications: extracellular domain
# B3: Q238A: single-point mutated rat sRANKL (protein, UniProt Q9ESE2 69-318, looked up, variant Q238A)
# extracellular domain: B1 extracellular domain with A158H, Q170A
# modifications: extracellular domain
# notes: as for B1
# B4: E270A: single-point mutated rat sRANKL (protein)
# chain: KPEAQPFAHLTINAADIPSGSHKVSLSSWYHDRGWAKISNMTLSNGKLRVNQDGFYYLYANICFRHHETSGSVPADYLQLMVYVVKTSIKIPSSHNLMKGGSTKNWSGNSAFHFYSINVGGFFKLRAGEEISVQVSNPSLLDPDQDATYFGAFKVQDID
# modifications: left off: His6, N-terminal, cleaved | SUMO, N-terminal, cleaved
# notes: as for B1
# B5: K182A: single-point mutated rat sRANKL (protein)
# chain: B4 chain with K23A, A111E
# modifications: left off: His6, N-terminal, cleaved | SUMO, N-terminal, cleaved
# notes: as for B1
# B6: WT: wild type recombinant rat sRANKL (protein)
# chain: B4 chain with A111E
# modifications: left off: His6, N-terminal, cleaved | SUMO, N-terminal, cleaved
# notes: wild type recombinant rat sRANKL
# B7: D303A: single-point mutated rat sRANKL (protein)
# chain: B4 chain with A111E, D144A
# modifications: left off: His6, N-terminal, cleaved | SUMO, N-terminal, cleaved
# notes: as for B1
# B8: R224A: single-point mutated rat sRANKL (protein)
# chain: B4 chain with R65A, A111E
# modifications: left off: His6, N-terminal, cleaved | SUMO, N-terminal, cleaved
# notes: as for B1
# B9: Y242A: single-point mutated rat sRANKL (protein)
# chain: B4 chain with Y83A, A111E
# modifications: left off: His6, N-terminal, cleaved | SUMO, N-terminal, cleaved
# notes: as for B1
# B10: E227A: single-point mutated rat sRANKL (protein)
# chain: B4 chain with E68A, A111E
# modifications: left off: His6, N-terminal, cleaved | SUMO, N-terminal, cleaved
# notes: as for B1
# B11: D301A: single-point mutated rat sRANKL (protein)
# chain: B4 chain with A111E, D142A
# modifications: left off: His6, N-terminal, cleaved | SUMO, N-terminal, cleaved
# notes: as for B1
# System: BMM cells
# Test: Osteoclastogenic assay of WT, single-point mutated sRANKL and L-RANKL
# Format: cell-based, mouse
# Conditions: for number of osteoclasts (fig. 1f): BMMs, M-CSF 10 ng/mL; for osteoclast formation (fig. S4a): three replicates
# Experimental: Fig. 1 Evidence for selective sRANKL inhibition binding site identification. a Proposed small molecule binding site that can be used to distinguish sRANKL from mRANKL. b he probabilities that distances of residue pairs greater than 1.8 Å in sRANKL (red) and mRANKL (blue). The data are calculated based on conformation trajectories from 100 ns MD simulations on sRANKL and mRANKL. c SDRP frequency in sRANKL and mRANKL. d, e The distance of Y236-D303 and K182-R224 in sRANKL and mRANKL after MD simulation. f, g and h Osteoclastogenesis function of single-point mutated rat sRANKL and WT sRANKL. Representative TRAP staining images from one well each, with triplicate repeats wells of BMM cells isolated from C57BL/6 mice cultured with colony-stimulating factor 1 (M-CSF (10 ng/mL) and either varying WT sRANKL or mutated sRANKL (25–200 ng/mL). The number of osteoclasts counted in the osteoclastogenesis assay with mutated sRANKL. Data were presented as group mean ± s.d., n = 3 biological replicates.
# Mouse osteoclasts were cultured according to the previously reported protocols. BMMs were plated in 96-well plates at a density of 6 × 10^3 cells/well with complete medium containing 10 ng/mL M-CSF. The following day, cells were then stimulated with 100 ng/mL sRANKL in the presence or absence of compounds with different concentrations every 2 days until osteoclasts formed. In order to calculate IC50, we set 9 concentrations for each compound and untreated and non-sRANKL unstimulating group as controls, each with triplicated repeated wells. After 5 days, cells were fixed with 4% paraformaldehyde and then applied TRAP-staining to identify osteoclasts by using the TRAP-staining kit. Osteoclasts number (OC No.) in each well was counted and the percentage of inhibition ratio was calculated as follows:1 OCinhibitoryratio%=100−OCNo.treated−OCNo.unstimulating/OCNo.untreated−OCNo.unstimulating×100%
# GST-sRANKL was expressed and purified following a previously reported protocol. Rat sRANKL (aa160–318) cDNA was cloned into the bacterial expression vectors pGEX-3X and pGEX-2T with purification GST tag and resultant plasmid named p3rRANKL1. Label-free sRANKL protein in this study was obtained by removing His6-sumo tag from fusion protein His6-sumo-sRANKL. The DNA sequence encoding sRNAKL was inserted downstream the His6-sumo tag of a modified pET20b (+) plasmid. Single point mutations of sRANKL (K182A, R192A, W194A, R224A, H226A, E227A, Q238A, Y242A, H254A, N255A, E270A, K283A, D301A, D303A, or D305A) were constructed by PCR amplification using primer pairs to introduce the designed mutations to pET20b-His6-sumo-sRANKL recombinant plasmid. L-RANKL (binary-RANKL) plasmid was constructed as follow: the consecutive DNA sequence sequentially encoding His6-sumo tag and two sRANKL monomers was cloned into pET20b by PCR amplification using primer pairs to introduce the following restriction enzyme sites to the coding sequences: Nde I-His6-sumo-sRANKL-Bam HI and Bam HI-sRNAKL-Xho I. Each PCR product was double digested with the appropriate restriction enzymes (Thermo) and ligated to the pET20b vector between the Nde I and Xho I sites. Gly-Ser-Gly-Ser was designed to link the two monomers. After confirmed by sequence analysis, the recombinant plasmids were transformed into Escherichia coli BL21 (DE3) cells. The transformed cells were grown in LB media till OD600 about 0.6, then 0.15 mM IPTG was added to induce protein overexpression for 16 h at 20 °C.
Molecule,number of osteoclasts (fig. 1f) (sRANKL protein 25 ng/mL),number of osteoclasts (fig. 1f) (sRANKL protein 50 ng/mL),number of osteoclasts (fig. 1f) (sRANKL protein 100 ng/mL),number of osteoclasts (fig. 1f) (sRANKL protein 200 ng/mL),osteoclast formation (fig. S4a) (25 ng/mL),osteoclast formation (fig. S4a) (50 ng/mL),osteoclast formation (fig. S4a) (100 ng/mL),osteoclast formation (fig. S4a) (200 ng/mL),"osteoclastogenesis activity, osteoclast number (fig. S3a source data) (L-RANKL vs WT sRANKL, listed as WT-RANKL)"
B1,0,0,0,0,–,–,–,–,–
B2,–,–,–,–,4 (2×) and 8,11,15 and 19 and 17,23 and 19 and 24,–
B3,218 and 174 and 207,153 and 140 and 132,166 and 142 and 153,155 and 163 and 151,–,–,–,–,–
B4,0,0,0,0,–,–,–,–,–
B5,0,0,0,0,–,–,–,–,–
B6,53 and 61 and 57,118 and 103 and 116,198 and 201 and 205,198 and 201 and 205,53 and 61 and 57,118 and 103 and 116,201 and 205,201 and 205,341 and 355 and 358
B7,0,0,0,0,–,–,–,–,–
B8,0,0,0,0,–,–,–,–,–
B9,–,1 and 2,5 and 7,12 and 14 and 11,–,–,–,–,–
B10,0,0,0,0,–,–,–,–,–
B11,0,0,0,0,–,–,–,–,–
